# US20180194841A1
# Columns and labels:
# [1] = molecular target: Fc receptors (FcR) on U937 cells; test: cell-based or functional assay
# [2] = molecular target: human CD3 (on Jurkat cells, CD3+, CD20- human T-cell line; on human T cells) (human) (UniProt P07766); test: FACS, serially diluted antibody on Jurkat cells (CD3+, CD20-)
# [3] = molecular target: cynomolgus CD3 (on cynomolgus T cells from PBMCs, "mkT cells") (cynomolgus) (UniProt Q95LI5); test: FACS, serially diluted antibody on cynomolgus T cells (CD2+CD4+ gate of PBMCs)
# [4] = molecular target: His-tagged cynomolgus FcγRIIA (cynomolgus); test: SPR steady-state, 25 C, His-tagged FcγR captured, antibody injected
# [5] = molecular target: His-tagged cynomolgus FcγRIIB (cynomolgus); test: as above
# [6] = molecular target: His-tagged cynomolgus FcγRIIIA (cynomolgus) (UniProt Q8SPW2); test: as above
# [7] = molecular target: His-tagged human FcγRIIA (H131) (human) (UniProt P12318); test: as above
# [8] = molecular target: His-tagged human FcγRIIIA (F176) (human) (UniProt P08637); test: as above
# [9] = molecular target: His-tagged human FcγRIIIA (V176) (human) (UniProt P08637); test: as above
# [10] = molecular target: His-tagged human FcγRIIIB (human) (UniProt O75015); test: as above
# [11] = molecular target: His-tagged human FcγRI (human) (UniProt P12314); test: SPR (Biacore T200), 25 C, His-tagged FcγRI captured on anti-penta-His chip, antibody injected, 1:1 fit
# [12] = molecular target: His-tagged human FcγRIIA (R131) (human) (UniProt P12318); test: SPR steady-state, 25 C, His-tagged FcγR captured, antibody injected
# [13] = molecular target: His-tagged human FcγRIIB (human) (UniProt P31994); test: as above
# Chain of His-tagged human FcγRIIB (human) (P31994 46-217 limits assumed): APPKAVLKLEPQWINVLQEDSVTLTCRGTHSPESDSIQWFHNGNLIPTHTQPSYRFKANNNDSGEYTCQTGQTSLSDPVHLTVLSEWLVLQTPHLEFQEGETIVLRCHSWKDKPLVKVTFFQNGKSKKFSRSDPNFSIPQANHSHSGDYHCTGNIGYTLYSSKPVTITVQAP
# Chain of His-tagged human FcγRI (human) (P12314 16-288 limits assumed): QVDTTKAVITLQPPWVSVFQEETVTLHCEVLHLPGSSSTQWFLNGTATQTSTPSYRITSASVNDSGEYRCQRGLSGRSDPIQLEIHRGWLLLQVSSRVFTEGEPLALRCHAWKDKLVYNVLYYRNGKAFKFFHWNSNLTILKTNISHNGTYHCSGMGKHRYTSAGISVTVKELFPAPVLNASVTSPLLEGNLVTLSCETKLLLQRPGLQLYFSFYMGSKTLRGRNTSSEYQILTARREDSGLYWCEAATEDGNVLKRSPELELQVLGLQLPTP
# Chain of His-tagged human FcγRIIA (H131) (human) (P12318 36-218 limits assumed): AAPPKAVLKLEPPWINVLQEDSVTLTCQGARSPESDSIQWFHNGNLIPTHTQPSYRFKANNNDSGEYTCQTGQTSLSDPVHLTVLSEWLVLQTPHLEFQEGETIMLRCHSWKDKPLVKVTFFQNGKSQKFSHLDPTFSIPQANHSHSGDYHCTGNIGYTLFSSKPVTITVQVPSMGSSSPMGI
# Chain of His-tagged human FcγRIIIA (V176) (human) (P08637 17-208 F176V limits assumed): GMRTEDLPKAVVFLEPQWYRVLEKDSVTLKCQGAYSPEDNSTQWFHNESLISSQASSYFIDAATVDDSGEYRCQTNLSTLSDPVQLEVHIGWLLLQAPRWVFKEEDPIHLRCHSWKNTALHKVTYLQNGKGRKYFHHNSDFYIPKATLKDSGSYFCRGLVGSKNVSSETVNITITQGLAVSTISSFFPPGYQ
# Chain of His-tagged human FcγRIIIA (F176) (human) (P08637 17-208 limits assumed): as the sequence (P08637 17-208 F176V limits assumed) above, with V160F counted along it
# Chain of His-tagged cynomolgus FcγRIIIA (cynomolgus) (Q8SPW2 17-208 limits assumed): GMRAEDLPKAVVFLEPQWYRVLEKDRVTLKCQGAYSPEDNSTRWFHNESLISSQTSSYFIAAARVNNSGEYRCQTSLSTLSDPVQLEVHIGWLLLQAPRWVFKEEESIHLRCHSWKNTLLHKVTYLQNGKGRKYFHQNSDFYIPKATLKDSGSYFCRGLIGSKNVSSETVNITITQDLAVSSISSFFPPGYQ
# Chain of His-tagged human FcγRIIIB (human) (O75015 17-200 limits assumed): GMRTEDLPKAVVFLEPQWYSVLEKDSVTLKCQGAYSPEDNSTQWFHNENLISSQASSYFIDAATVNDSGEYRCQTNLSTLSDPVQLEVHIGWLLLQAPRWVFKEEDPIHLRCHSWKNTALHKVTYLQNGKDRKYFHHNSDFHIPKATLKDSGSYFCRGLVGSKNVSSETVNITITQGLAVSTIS
# Chain of cynomolgus CD3 (on cynomolgus T cells from PBMCs, "mkT cells") (cynomolgus) (Q95LI5 22-198, chain 1 of 3): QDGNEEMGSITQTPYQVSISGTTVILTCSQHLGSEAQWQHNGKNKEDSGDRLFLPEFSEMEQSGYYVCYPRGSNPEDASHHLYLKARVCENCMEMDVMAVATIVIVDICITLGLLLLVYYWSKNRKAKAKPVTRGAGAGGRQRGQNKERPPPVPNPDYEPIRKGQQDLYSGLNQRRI
# Chain of cynomolgus CD3 (on cynomolgus T cells from PBMCs, "mkT cells") (cynomolgus) (Q95LI8 22-171, chain 2 of 3, further chain): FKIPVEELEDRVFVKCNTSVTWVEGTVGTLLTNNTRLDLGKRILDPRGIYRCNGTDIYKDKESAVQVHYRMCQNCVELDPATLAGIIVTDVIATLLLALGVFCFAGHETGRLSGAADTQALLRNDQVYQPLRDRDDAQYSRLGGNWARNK
# Chain of cynomolgus CD3 (on cynomolgus T cells from PBMCs, "mkT cells") (cynomolgus) (Q95LI7 23-181, chain 3 of 3, further chain): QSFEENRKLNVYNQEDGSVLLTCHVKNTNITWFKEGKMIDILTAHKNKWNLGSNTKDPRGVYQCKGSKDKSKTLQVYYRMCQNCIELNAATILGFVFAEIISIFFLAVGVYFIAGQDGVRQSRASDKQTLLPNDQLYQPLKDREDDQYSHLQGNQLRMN
# Chain of His-tagged human FcγRIIA (R131) (human) (P12318 36-218 H167R limits assumed): as the sequence (P12318 36-218 limits assumed) above, with H132R counted along it
substance,measurement,setting,value
"Control Antibody 1: Monoclonal antibody ""OKT-3"" against human T-cell surface antigens","U937 Cytotoxicity Human T-cells [M] (EC50, calcein release)",[1],3.04e-12 M
same,EC50,[2],0.000196 µM
"Control Antibody 2: Antibody ""SP34"" reactive against the epsilon chain of the T3 complex on human T lymphocyte cells",EC50,[3],0.0703 nM
wt-IgG1 Isotype Control (from UniProt P01857 1-328) (antibody),Kd,[4],4.2 µM
same,Kd,[5],4.2 µM
same,Kd,[6],0.6 µM
same,Kd,[7],1.1 µM
same,Kd,[8],1.3 µM
same,Kd,[9],1.5 µM
same,Kd,[10],2.3 µM
same,Kd,[11],0.0043 µM
same,T1/2,[11],15 min
wt-IgG4 CPPC Isotype Control (antibody),Kd,[4],19.3 µM
same,Kd,[5],9.6 µM
same,Kd,[6],5.8 µM
same,Kd,[7],12 µM
same,Kd,[12],10 µM
same,Kd,[13],9.8 µM
same,Kd,[8],26 µM
same,Kd,[9],10 µM
same,Kd,[11],0.0139 µM
same,T1/2,[11],5 min
same,koff,[11],0.00236 s⁻¹
same,kon,[11],171000 M⁻¹ s⁻¹
